# Measured values taken from US20210087244A1.
# Biological target: A-beta42 Monomer (human)
# Assay: SPR direct binding (MASS-1), hybridoma supernatant over immobilized antigen
# Sequence of A-beta42 Monomer (human) (peptide, as listed by the source): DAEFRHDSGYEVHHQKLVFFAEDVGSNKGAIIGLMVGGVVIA
binder,measurement,value
"301-12G11 (17) (antibody, V domains shown) VH: QVQLQQPGAELVKPGASVKMSCKASGYSFTSYWINWVKQRPGQGLEWIGDVHPGRGVSTYNAKFKSKATLTLDTSSSTAYMQLSSLTSEDSAVYYCSRSHGNTYWFFDVWGAGTTVTVSS VL: DVLMTQTPLSLPVSLGDQASISCRSSQSIVHSNGNTYLEWYLQKPGQSPKLLIYKVSNRFSGVPDRFSGSGSGTDFTLKISRVEAEDLGVYYCFQGSHVPFTFGSGTKLEIKR",response units (RU),46 RU
